Experimental data reported in article PMC314469, “Protein Interaction Networks by Proteome Peptide Scanning” (PLoS Biology, 2004).

T1: Abp1 SH3 (ABP1_YEAST), P15891
T1 chain: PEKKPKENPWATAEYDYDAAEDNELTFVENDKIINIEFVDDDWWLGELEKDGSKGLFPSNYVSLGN


Target: T1, Abp1 SH3 (ABP1_YEAST), P15891
Assay: SPOT array

Binder | normalised SPOT signal, Boehringer light units (BLU); mean over the file's lines of this peptide
VSSSEIESVEPLKP [YMR219W 1122-1135] | 56.1
VSSTGSKSGPPPRP [YNL138W 345-358] | 793
VMIIFTIPETYKP [YHR048W 242-254] | 96
YIRNAVKENFPEKP [YBR137W 45-58] | 118
YDNKVEEGSKPKKP [YOR168W 668-681] | 140
VVYFSSIPPYMKP [YNR054C 115-127] | 93.8
VPLQIVSPQSNKP [YDL140C 507-519] | 20.8
VLPVKIQPPLLRP [YPR175W 10-22] | 149
WIRSTLNHIIPRRP [YML061C 4-17] | 66.3
VSSSSTIPVLPKP [YJL201W 369-381] | 77.3
VTKRPATSTPPRKP [YJR043C 299-312] | 812
VVSSKGTSTYPVKP [YJR105W 266-279] | 112
YFTSSYFPDDRRP [YKL004W 102-114] | 304
VVVEFSSPNIAKP [YHR091C 181-193] | 86.6
VYYVSKAKLQPAKP [YAR007C 254-267] | 135
VPKSTHDPSLAKP [YER167W 235-247] | 82.5
VNNEIHYYYPPVKP [YDR321W 235-248] | 116
VRRKPHSPNKKKP [YDR223W 11-23] | 98
YASPMYDFLYPFRP [YOR002W 18-31] | 179
VSHGDLNLINPMRP [YOL042W 270-283] | 107

Binder | normalised SPOT signal, Boehringer light units (BLU); mean over the file's lines of this peptide
VLDVSHSKYIPLKP [YGL017W 311-324] | 51.1
VTDFNYTPSHQKP [YIL106W 99-111] | 79
VVVMSTSDERPFRP [YGL165C 142-155] | 146
WSIKLWDLSKPSKP [YAR003W 94-107] | 135
VSRFYQIPGTHRP [YBR235W 2-14] | 326
VLVTEKFPEVMKP [YMR208W 259-271] | 87.4
YEATPFDPITVKP [YNL330C 3-15] | 62.3
VPPTQSLPNGKKP [YER035W 35-47] | 79.3
VVRTSKHWVLPPRP [YKL109W 62-75] | 2600
VQMRMDPNQQPEKP [YDR258C 83-96] | 247
YFPSKTVGSHPRKP [YPL162C 135-148] | 311
YEHLTSVKIVPQRP [YAL054C 40-53] | 113
WSRHFFLPRSKRP [YBL012C 87-99] | 324
YASALKEMTHPIKP [YLR239C 24-37] | 34.2
VSHYHYGVKHPMKP [YGL194C 36-49] | 39.9
VTDLIKFPLMDKP [YNR011C 599-611] | 88.1
VVDGNLAHETPVKP [YGR188C 429-442] | 93
VVRIKGINKIPPKP [YGL076C 86-99] | 615
VNYVDYYPLPDKP [YGL137W 187-199] | 40.6
VSLHLVRKVAPTKP [YHR070W 474-487] | 5240

Binder | normalised SPOT signal, Boehringer light units (BLU); mean over the file's lines of this peptide
VVDIEVPMEYPFKP [YDR177W 53-66] | 40.3
VSFDLKTPLRAKP [YMR092C 479-491] | 461
VNIEDITEPKPDKP [YDR363W 93-106] | 103
YDVIEVVPEPGKP [YDR301W 1057-1069] | 37
WDGVIPTPAIIKP [YDL140C 556-568] | 78
WRYLPAPPVSIRP [YOR116C 258-270] | 1240
VLRLTDIEKTPQRP [YFL001W 315-328] | 122
VWYISYGEWGPRRP [YNL052W 72-85] | 29.6
VLALNNLSQDPPKP [YJR033C 294-307] | 105
WRSKRIEQLFPVRP [YDL150W 191-204] | 201
VLNTRESPDSLKP [YGR109W-B 421-433] | 103
WTLNKDKIAHPVRP [YBR276C 624-637] | 1090
YAEILKNRMNPEKP [YBL034C 847-860] | 100
VSSQPSLPRTLKP [YPL019C 812-824] | 214
VNPIGITPLGPKP [YMR251W 349-361] | 62.5
VQVQTTTSILPLKP [YGR188C 415-428] | 69.6
VLSTLYQPNGFRP [YHR194W 300-312] | 54.5
VRDAYEKTLPPKRP [YKL032C 424-437] | 416
